Laboratory results reported in PMC5592140 (Cellular signalling, 2017).
Like-named read-outs stand apart in the source and are kept apart here.

Experiments:
[1] = target: T1, GST-MLK4β (Mixed Lineage Kinase 4β) (human, UniProt Q5TCX8-1 1-1036); assay: pull-down
[2] = target: T1, GST-MLK4β (Mixed Lineage Kinase 4β); assay: pull-down; remark: listed apart in the source

T1 sequence (Q5TCX8 whole entry): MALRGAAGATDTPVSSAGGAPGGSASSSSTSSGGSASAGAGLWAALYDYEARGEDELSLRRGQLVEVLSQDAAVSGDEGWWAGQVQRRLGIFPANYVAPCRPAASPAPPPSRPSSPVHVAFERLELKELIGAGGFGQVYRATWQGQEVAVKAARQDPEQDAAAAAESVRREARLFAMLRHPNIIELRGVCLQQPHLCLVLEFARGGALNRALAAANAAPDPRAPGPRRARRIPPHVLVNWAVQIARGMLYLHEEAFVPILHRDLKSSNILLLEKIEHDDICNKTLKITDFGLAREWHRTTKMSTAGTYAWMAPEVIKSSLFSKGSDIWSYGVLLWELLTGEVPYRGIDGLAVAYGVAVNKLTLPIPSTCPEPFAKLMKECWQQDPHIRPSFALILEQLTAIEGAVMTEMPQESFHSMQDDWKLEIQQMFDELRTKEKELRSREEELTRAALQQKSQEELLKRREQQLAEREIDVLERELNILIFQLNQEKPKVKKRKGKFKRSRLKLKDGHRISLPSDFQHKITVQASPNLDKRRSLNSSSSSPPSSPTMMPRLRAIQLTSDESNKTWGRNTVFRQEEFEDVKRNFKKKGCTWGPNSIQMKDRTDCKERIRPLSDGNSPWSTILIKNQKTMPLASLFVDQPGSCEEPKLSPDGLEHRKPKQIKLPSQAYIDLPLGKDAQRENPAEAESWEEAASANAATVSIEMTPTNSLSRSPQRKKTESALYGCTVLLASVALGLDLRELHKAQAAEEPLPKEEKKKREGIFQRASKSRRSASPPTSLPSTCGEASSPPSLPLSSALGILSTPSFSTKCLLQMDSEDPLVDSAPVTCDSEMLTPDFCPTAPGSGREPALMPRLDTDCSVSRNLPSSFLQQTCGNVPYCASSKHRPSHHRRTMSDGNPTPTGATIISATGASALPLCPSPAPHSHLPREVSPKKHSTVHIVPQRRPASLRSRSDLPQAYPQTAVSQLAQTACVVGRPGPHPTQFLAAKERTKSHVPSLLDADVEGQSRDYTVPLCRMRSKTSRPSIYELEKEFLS

| binding result [1] | binding result [2] | Binder |
| --- | --- | --- |
| binds | – | His-MLK3 (Mixed Lineage Kinase 3) (enzyme, human, UniProt Q16584 1-847, looked up) MEPLKSLFLKSPLGSWNGSGSGGGGGGGGGRPEGSPKAAGYANPVWTALFDYEPSGQDELALRKGDRVEVLSRDAAISGDEGWWAGQVGGQVGIFPSNYVSRGGGPPPCEVASFQELRLEEVIGIGGFGKVYRGSWRGELVAVKAARQDPDEDISVTAESVRQEARLFAMLAHPNIIALKAVCLEEPNLCLVMEYAAGGPLSRALAGRRVPPHVLVNWAVQIARGMHYLHCEALVPVIHRDLKSNNILLLQPIESDDMEHKTLKITDFGLAREWHKTTQMSAAGTYAWMAPEVIKASTFSKGSDVWSFGVLLWELLTGEVPYRGIDCLAVAYGVAVNKLTLPIPSTCPEPFAQLMADCWAQDPHRRPDFASILQQLEALEAQVLREMPRDSFHSMQEGWKREIQGLFDELRAKEKELLSREEELTRAAREQRSQAEQLRRREHLLAQWELEVFERELTLLLQQVDRERPHVRRRRGTFKRSKLRARDGGERISMPLDFKHRITVQASPGLDRRRNVFEVGPGDSPTFPRFRAIQLEPAEPGQAWGRQSPRRLEDSSNGERRACWAWGPSSPKPGEAQNGRRRSRMDEATWYLDSDDSSPLGSPSTPPALNGNPPRPSLEPEEPKRPVPAERGSSSGTPKLIQRALLRGTALLASLGLGRDLQPPGGPGRERGESPTTPPTPTPAPCPTEPPPSPLICFSLKTPDSPPTPAPLLLDLGIPVGQRSAKSPRREEEPRGGTVSPPPGTSRSAPGTPGTPRSPPLGLISRPRPSPLRSRIDPWSFVSAGPRPSPLPSPQPAPRRAPWTLFPDSDPFWDSPPANPFQGGPQDCRAQTKDMGAQAPWVPEAGP |
| – | binds | FLAG-CHIP (carboxy-terminus of Hsc70-interacting protein) (enzyme, human, UniProt Q9UNE7 1-303, looked up) MKGKEEKEGGARLGAGGGSPEKSPSAQELKEQGNRLFVGRKYPEAAACYGRAITRNPLVAVYYTNRALCYLKMQQHEQALADCRRALELDGQSVKAHFFLGQCQLEMESYDEAIANLQRAYSLAKEQRLNFGDDIPSALRIAKKKRWNSIEERRIHQESELHSYLSRLIAAERERELEECQRNHEGDEDDSHVRAQQACIEAKHDKYMADMDELFSQVDEKRKKRDIPDYLCGKISFELMREPCITPSGITYDRKDIEEHLQRVGHFDPVTRSPLTQEQLIPNLAMKEVIDAFISENGWVEDY |
